{"source": "paper doi:10.1101/343640", "target": "IMCC25003 KatG (bifunctional catalase-peroxidase of strain IMCC25003) ('Ca. Planktophila rubra' IMCC25003 (acI-A1 tribe, freshwater Actinobacteria))", "assay": "SEC"}
{"substance": "IMCC25003 KatG (bifunctional catalase-peroxidase of strain IMCC25003) (enzyme)", "values": [{"measurement": "stoichiometry N", "value": 2}]}
